According to patent US6949577B2, “Pharmaceuticals” (Pfizer, Inc., priority 2000, dated 2005):

Tested on: thrombi in the left circumflex (LCX) coronary artery
Assay: Lysis of coronary artery thrombi by TAFIa inhibitor in conjunction with t-PA
Type: in vivo, dogs
From the text: The study was designed with 4 groups (8 dogs/group): • (i) aspirin pre-treatment/vehicle infusion; • (ii) no pre-treatment/vehicle infusion; • (iii) no pre-treatment/TAFIa inhibitor; and • (iv) aspirin pre-treatment/TAFIa inhibitor.
Thirty minutes after initiating vehicle or compound infusion a continuous electrical current was delivered to the lumen of the left circumflex (LCX) coronary artery to cause endothelial damage and stimulate the production of a thrombus. Thrombi were allowed to mature for 1 hour prior to attempting to lyse the thrombus and cause vessel reperfusion with t-PA. A total of 4 bolus injections of t-PA (each 0.45 mg/kg i.v.) were given sequentially at 15 minute intervals. Blood flow through the coronary artery was then monitored for a further 2 hours so as to assess vessel patency. Time to vessel occlusion, and reperfusion were measured and the quantity and quality of blood flow analysed post-vessel re-perfusion. In addition, the effect of treatment on surgical bleeding, activated clotting time, cutaneous bleeding and platelet aggregation was also assessed.

B1: tPA: recombinant tissue plasminogen activator (tPA), a profibrinolytic antithrombotic (protein, UniProt P00750 36-562, looked up)
Tissue-type plasminogen …: SYQVICRDEKTQMIYQQHQSWLRPVLRSNRVEYCWCNSGRAQCHSVPVKSCSEPRCFNGGTCQQALYFSDFVCQCPEGFAGKCCEIDTRATCYEDQGISYRGTWSTAESGAECTNWNSSALAQKPYSGRRPDAIRLGLGNHNYCRNPDRDSKPWCYVFKAGKYSSEFCSTPACSEGNSDCYFGNGSAYRGTHSLTESGASCLPWNSMILIGKVYTAQNPSAQALGLGKHNYCRNPDGDAKPWCHVLKNRRLTWEYCDVPSCSTCGLRQYSQPQFRIKGGLFADIASHPWQAAIFAKHRRSPGERFLCGGILISSCWILSAAHCFQERFPPHHLTVILGRTYRVVPGEEEQKFEVEKYIVHKEFDDDTYDNDIALLQLKSDSSRCAQESSVVRTVCLPPADLQLPDWTECELSGYGKHEALSPFYSERLKEAHVRLYPSSRCTSQHLLNRTVTDNMLCAGDTRSGGPQANLHDACQGDSGGPLVCLNDGRMTLVGIISWGLGCGQKDVPGVYTKVTNYLDWIRDNMRP
8 dogs/group, all groups received t-PA
  injured vessels patent at the end of the experiment: 2/8
dogs, t-PA 4 x 0.45 mg/kg i.v. boluses, comparison of treatment groups
  blood flow post-reperfusion (FIG. 1): superior to the combination of tPA and aspirin
